B1: SPAM1-IFYN: C-terminally truncated human PH20, precursor 483 aa (SEQ ID NO:17), mature 448 aa (SEQ ID NO:69) (protein, listed as Homo sapiens)
chain 1: MGVLKFKHIFFRSFVKSSGVSQIVFTFLLIPCCLTLNFRAPPVIPNVPFLWAWNAPSEFCLGKFDEPLDMSLFSFIGSPRINATGQGVTIFYVDRLGYYPYIDSITGVTVNGGIPQKISLQDHLDKAKKDITFYMPVDNLGMAVIDWEEWRPTWARNWKPKDVYKNRSIELVQQQNVQLSLTEATEKAKQEFEKAGKDFLVETIKLGKLLRPNHLWGYYLFPDCYNHHYKKPGYNGSCFNVEIKRNDDLSWLWNESTALYPSIYLNTQQSPVAATLYVRNRVREAIRVSKIPDAKSPLPVFAYTRIVFTDQVLKFLSQDELVYTFGETVALGASGIVIWGTLSIMRSMKSCLLLDNYMETILNPYIINVTLAAKMCSQVLCQEQGVCIRKNWNSSDYLHLNPDNFAIQLEKGGKFTVRGKPTLEDLEQFSEKFYCSCYSTLSCKEKADVKDTDAVDVCIADGVCIDAFLKPPMETEEPQIFYN
chain 2: LNFRAPPVIPNVPFLWAWNAPSEFCLGKFDEPLDMSLFSFIGSPRINATGQGVTIFYVDRLGYYPYIDSITGVTVNGGIPQKISLQDHLDKAKKDITFYMPVDNLGMAVIDWEEWRPTWARNWKPKDVYKNRSIELVQQQNVQLSLTEATEKAKQEFEKAGKDFLVETIKLGKLLRPNHLWGYYLFPDCYNHHYKKPGYNGSCFNVEIKRNDDLSWLWNESTALYPSIYLNTQQSPVAATLYVRNRVREAIRVSKIPDAKSPLPVFAYTRIVFTDQVLKFLSQDELVYTFGETVALGASGIVIWGTLSIMRSMKSCLLLDNYMETILNPYIINVTLAAKMCSQVLCQEQGVCIRKNWNSSDYLHLNPDNFAIQLEKGGKFTVRGKPTLEDLEQFSEKFYCSCYSTLSCKEKADVKDTDAVDVCIADGVCIDAFLKPPMETEEPQIFYN
modifications: HuPH20 precursor 1-483; Mature HuPH20 36-483
B2: SPAM1-ADVK: C-terminally truncated human PH20, precursor 450 aa (SEQ ID NO:43), mature 415 aa (SEQ ID NO:95) (protein, listed as Homo sapiens)
chain: MGVLKFKHIFFRSFVKSSGVSQIVFTFLLIPCCLTLNFRAPPVIPNVPFLWAWNAPSEFCLGKFDEPLDMSLFSFIGSPRINATGQGVTIFYVDRLGYYPYIDSITGVTVNGGIPQKISLQDHLDKAKKDITFYMPVDNLGMAVIDWEEWRPTWARNWKPKDVYKNRSIELVQQQNVQLSLTEATEKAKQEFEKAGKDFLVETIKLGKLLRPNHLWGYYLFPDCYNHHYKKPGYNGSCFNVEIKRNDDLSWLWNESTALYPSIYLNTQQSPVAATLYVRNRVREAIRVSKIPDAKSPLPVFAYTRIVFTDQVLKFLSQDELVYTFGETVALGASGIVIWGTLSIMRSMKSCLLLDNYMETILNPYIINVTLAAKMCSQVLCQEQGVCIRKNWNSSDYLHLNPDNFAIQLEKGGKFTVRGKPTLEDLEQFSEKFYCSCYSTLSCKEKADVK
modifications: HuPH20 precursor 1-450
B3: SPAM1-FYNA: C-terminally truncated human PH20, precursor 484 aa (SEQ ID NO:16), mature 449 aa (SEQ ID NO:68) (protein, listed as Homo sapiens)
chain 1: MGVLKFKHIFFRSFVKSSGVSQIVFTFLLIPCCLTLNFRAPPVIPNVPFLWAWNAPSEFCLGKFDEPLDMSLFSFIGSPRINATGQGVTIFYVDRLGYYPYIDSITGVTVNGGIPQKISLQDHLDKAKKDITFYMPVDNLGMAVIDWEEWRPTWARNWKPKDVYKNRSIELVQQQNVQLSLTEATEKAKQEFEKAGKDFLVETIKLGKLLRPNHLWGYYLFPDCYNHHYKKPGYNGSCFNVEIKRNDDLSWLWNESTALYPSIYLNTQQSPVAATLYVRNRVREAIRVSKIPDAKSPLPVFAYTRIVFTDQVLKFLSQDELVYTFGETVALGASGIVIWGTLSIMRSMKSCLLLDNYMETILNPYIINVTLAAKMCSQVLCQEQGVCIRKNWNSSDYLHLNPDNFAIQLEKGGKFTVRGKPTLEDLEQFSEKFYCSCYSTLSCKEKADVKDTDAVDVCIADGVCIDAFLKPPMETEEPQIFYNA
chain 2: LNFRAPPVIPNVPFLWAWNAPSEFCLGKFDEPLDMSLFSFIGSPRINATGQGVTIFYVDRLGYYPYIDSITGVTVNGGIPQKISLQDHLDKAKKDITFYMPVDNLGMAVIDWEEWRPTWARNWKPKDVYKNRSIELVQQQNVQLSLTEATEKAKQEFEKAGKDFLVETIKLGKLLRPNHLWGYYLFPDCYNHHYKKPGYNGSCFNVEIKRNDDLSWLWNESTALYPSIYLNTQQSPVAATLYVRNRVREAIRVSKIPDAKSPLPVFAYTRIVFTDQVLKFLSQDELVYTFGETVALGASGIVIWGTLSIMRSMKSCLLLDNYMETILNPYIINVTLAAKMCSQVLCQEQGVCIRKNWNSSDYLHLNPDNFAIQLEKGGKFTVRGKPTLEDLEQFSEKFYCSCYSTLSCKEKADVKDTDAVDVCIADGVCIDAFLKPPMETEEPQIFYNA
modifications: HuPH20 precursor 1-484; Mature HuPH20 36-484
B4: SPAM1-YNAS: C-terminally truncated human PH20, precursor 485 aa (SEQ ID NO:15), mature 450 aa (SEQ ID NO:67) (protein, listed as Homo sapiens)
chain: LNFRAPPVIPNVPFLWAWNAPSEFCLGKFDEPLDMSLFSFIGSPRINATGQGVTIFYVDRLGYYPYIDSITGVTVNGGIPQKISLQDHLDKAKKDITFYMPVDNLGMAVIDWEEWRPTWARNWKPKDVYKNRSIELVQQQNVQLSLTEATEKAKQEFEKAGKDFLVETIKLGKLLRPNHLWGYYLFPDCYNHHYKKPGYNGSCFNVEIKRNDDLSWLWNESTALYPSIYLNTQQSPVAATLYVRNRVREAIRVSKIPDAKSPLPVFAYTRIVFTDQVLKFLSQDELVYTFGETVALGASGIVIWGTLSIMRSMKSCLLLDNYMETILNPYIINVTLAAKMCSQVLCQEQGVCIRKNWNSSDYLHLNPDNFAIQLEKGGKFTVRGKPTLEDLEQFSEKFYCSCYSTLSCKEKADVKDTDAVDVCIADGVCIDAFLKPPMETEEPQIFYNAS
modifications: mature HuPH20 36-485
B5: SPAM1-QIFY: C-terminally truncated human PH20, precursor 482 aa (SEQ ID NO:18), mature 447 aa (SEQ ID NO:70) (protein, listed as Homo sapiens)
chain 1: MGVLKFKHIFFRSFVKSSGVSQIVFTFLLIPCCLTLNFRAPPVIPNVPFLWAWNAPSEFCLGKFDEPLDMSLFSFIGSPRINATGQGVTIFYVDRLGYYPYIDSITGVTVNGGIPQKISLQDHLDKAKKDITFYMPVDNLGMAVIDWEEWRPTWARNWKPKDVYKNRSIELVQQQNVQLSLTEATEKAKQEFEKAGKDFLVETIKLGKLLRPNHLWGYYLFPDCYNHHYKKPGYNGSCFNVEIKRNDDLSWLWNESTALYPSIYLNTQQSPVAATLYVRNRVREAIRVSKIPDAKSPLPVFAYTRIVFTDQVLKFLSQDELVYTFGETVALGASGIVIWGTLSIMRSMKSCLLLDNYMETILNPYIINVTLAAKMCSQVLCQEQGVCIRKNWNSSDYLHLNPDNFAIQLEKGGKFTVRGKPTLEDLEQFSEKFYCSCYSTLSCKEKADVKDTDAVDVCIADGVCIDAFLKPPMETEEPQIFY
chain 2: LNFRAPPVIPNVPFLWAWNAPSEFCLGKFDEPLDMSLFSFIGSPRINATGQGVTIFYVDRLGYYPYIDSITGVTVNGGIPQKISLQDHLDKAKKDITFYMPVDNLGMAVIDWEEWRPTWARNWKPKDVYKNRSIELVQQQNVQLSLTEATEKAKQEFEKAGKDFLVETIKLGKLLRPNHLWGYYLFPDCYNHHYKKPGYNGSCFNVEIKRNDDLSWLWNESTALYPSIYLNTQQSPVAATLYVRNRVREAIRVSKIPDAKSPLPVFAYTRIVFTDQVLKFLSQDELVYTFGETVALGASGIVIWGTLSIMRSMKSCLLLDNYMETILNPYIINVTLAAKMCSQVLCQEQGVCIRKNWNSSDYLHLNPDNFAIQLEKGGKFTVRGKPTLEDLEQFSEKFYCSCYSTLSCKEKADVKDTDAVDVCIADGVCIDAFLKPPMETEEPQIFY
modifications: HuPH20 precursor 1-482; Mature HuPH20 36-482
B6: SPAM1-ASPS: C-terminally truncated human PH20, precursor 487 aa (SEQ ID NO:14), mature 452 aa (SEQ ID NO:66) (protein, listed as Homo sapiens)
chain: MGVLKFKHIFFRSFVKSSGVSQIVFTFLLIPCCLTLNFRAPPVIPNVPFLWAWNAPSEFCLGKFDEPLDMSLFSFIGSPRINATGQGVTIFYVDRLGYYPYIDSITGVTVNGGIPQKISLQDHLDKAKKDITFYMPVDNLGMAVIDWEEWRPTWARNWKPKDVYKNRSIELVQQQNVQLSLTEATEKAKQEFEKAGKDFLVETIKLGKLLRPNHLWGYYLFPDCYNHHYKKPGYNGSCFNVEIKRNDDLSWLWNESTALYPSIYLNTQQSPVAATLYVRNRVREAIRVSKIPDAKSPLPVFAYTRIVFTDQVLKFLSQDELVYTFGETVALGASGIVIWGTLSIMRSMKSCLLLDNYMETILNPYIINVTLAAKMCSQVLCQEQGVCIRKNWNSSDYLHLNPDNFAIQLEKGGKFTVRGKPTLEDLEQFSEKFYCSCYSTLSCKEKADVKDTDAVDVCIADGVCIDAFLKPPMETEEPQIFYNASPS
modifications: HuPH20 precursor 1-487

How the values were obtained:
[1] = Microtiter hyaluronidase activity assay with biotinylated-hyaluronic acid; type: biochemical; details: 72 hour post transfection supernatant
[2] = system: CHO-S cells; assay: Western blot analysis of PH20 expression in media and cells after transient expression; type: cell-based, Chinese Hamster; details: media versus cells
Summary of the method: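 CHO-S cells were transiently transfected with mutant PH20-HZ24 plasmids using GeneJuice and expressed for 48-72 h at 37 °C, 5% CO2. Media and cells were harvested separately, with PI-PLC treatment used to release GPI-anchored protein. Non-reduced samples were blotted with rabbit anti-PH20 (0.5 μg/mL), and a band near 66 kDa was scored as PH20.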

Row | Molecule | pH 5.5 Activity ([1]; Table 6) | pH 7.4 Activity ([1]; Table 6) | Expressed in Media [2] | pH 5.5 Activity ([1]; Table 6A) | pH 7.4 Activity ([1]; Table 6A)
1 | B1 | 2.3085 Units/ml | 2.45 Units/ml | YES |  | 
2 | B2 | 0.0405 Units/ml | 0.063 Units/ml | YES |  | 
3 | B3 | 1.262 Units/ml | 1.4985 Units/ml | YES |  | 
4 | B4 | 1.748 Units/ml | 1.8765 Units/ml | YES |  | 
5 | B5 | 1.647 Units/ml | 2.032 Units/ml | YES |  | 
6 | B6 | 0.9225 Units/ml | 1.017 Units/ml | YES | 1.580 Units/ml | 1.134 Units/ml

— patent US9284543B2, “Neutral active soluble truncated PH20 polypeptides and uses thereof” (Halozyme, Inc., priority 2008, dated 2016)
